Columns and labels:
[1] = molecular target: T1, BirA (biotin protein ligase, Group II) (Bacillus subtilis 168) (UniProt P0CI75); assay: EMSA; details: 50 mM Tris-HCl pH 8.0, 1 mM EDTA, 50 mM NaCl, 10% glycerol, 40 nM DNA, 15.6-500 nM BirA, 1 mM ATP, 1 mM MgCl2, 1 uM biotin; room temperature 30 min; 6% gel in …
T1 sequence: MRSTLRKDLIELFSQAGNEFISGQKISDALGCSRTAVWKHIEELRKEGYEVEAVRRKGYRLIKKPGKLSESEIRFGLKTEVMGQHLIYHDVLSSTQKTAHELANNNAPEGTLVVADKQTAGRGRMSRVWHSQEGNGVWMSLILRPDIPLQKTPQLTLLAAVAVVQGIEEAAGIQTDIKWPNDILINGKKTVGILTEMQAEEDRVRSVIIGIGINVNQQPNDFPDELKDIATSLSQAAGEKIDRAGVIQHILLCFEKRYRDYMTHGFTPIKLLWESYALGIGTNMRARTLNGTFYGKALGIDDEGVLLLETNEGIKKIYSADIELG

[2] = molecular target: the molecule itself; assay: cross-linking; purified BirA 30 µM in 50 mM HEPES pH 7.5, 500 mM NaCl, 0.1 mM TCEP, 5% glycerol; with biotin (0.1 mM) and ATP (0.1 mM), room temperature 30 min; EGS 0.125-0.5 mM, room temperature 30 min; SDS-PAGE on 4-20% gels

“CCTTTCACTGATAACTGAAGAACGTGTAGCGCTTCTCACCTAAATTGTTAACCAATTATATTCAAAGGTTAACAATTAGAATATATTATTCTCTCCTGTTTCTGTCAATAGAAGAAAGGATC (double strand) [B. subtilis bioO (bioWAFDBI operator)]” was tested, and the binding [1] was “binds”.

For “AACGATCGGGATTTCCATTTTCATCGATTCCAAAATGGCTACCTCCTGGCCCTTTTCGATTTGGTCGCCGGCTTTGACGTGGACTTTCCACAGGTTTCCTGCCATTTGTATGCTAACCGTCATGC (double strand) [non-operator DNA (yngHB/blap internal fragment)]”, the binding [1] was “no binding”.

In the case of “GGGGCTTCTCCAAAACGTGTTTTTTGTTGTTAATTCGGTGTAGACTTGTAAACCTAAATCTTTTCAATTTGGTTTACAAGTCGATTATGACAACGGACGATCTTGCCTTTGACCAACGCCATATC (double strand) [E. coli bioO]”, the binding [1] is reported as “binds more weakly”.

For “ATTCAAAGGTTAACAATTAGAATATATTATTCTCTCCTGTTTCTGTCAATAGAAGAAAGGATCGATTTATGGCAGTTGGTTAAAAGGAAACAAAAAGACCGTTTTCACACAAAACGGTCTTTTTC (double strand) [B. subtilis bioO half site]”, the binding [1] was “no binding”.

With “CCAAAAAGTAATCAAATATGGTTATACAATAAATGCAGGTAATTATTATGTCAACTGATTTTTAATTTAAGTTTACATAATGAACGCAAAAAAACCGGCCGTATGGCAGACCGGTTTTTGATGGT (double strand) [yhfU operator]” the binding [1] was “binds”.

In the case of “CCCTTAGGTTGACATACACAATCATAGAGTAATAAAGAACAAAAAGATTGTCAACATGATTTTAAATTAGGTTAACAAAAAGGAGGCCCATATGTATTTCGGAAAAACAAGACAGTCCGATCAAT (double strand) [yuiG operator]”, the binding [1] is reported as “binds”.

B1: B. subtilis N-terminally hexahistidine-tagged Δ2-65 BirA (domain or fragment, Bacillus subtilis, UniProt P0CI75 66-325, looked up)
chain: GKLSESEIRFGLKTEVMGQHLIYHDVLSSTQKTAHELANNNAPEGTLVVADKQTAGRGRMSRVWHSQEGNGVWMSLILRPDIPLQKTPQLTLLAAVAVVQGIEEAAGIQTDIKWPNDILINGKKTVGILTEMQAEEDRVRSVIIGIGINVNQQPNDFPDELKDIATSLSQAAGEKIDRAGVIQHILLCFEKRYRDYMTHGFTPIKLLWESYALGIGTNMRARTLNGTFYGKALGIDDEGVLLLETNEGIKKIYSADIELG
notes: no step that removes the tag is described; Primer SKH047 (BirA 66-325 NdeI F) reads ATGGGAAAACTCAGTGAAAGC, i.e. M-GKLSES; also called BirA 66-325; Δ2-66 BirA (so named in the methods); source: E. coli BL21 (λ DE3) with pSKH020, purified (Ni NTA)
In the case of B1, the “stoichiometry N” value [2] is reported as 2.

B2: B. subtilis N-terminally hexahistidine-tagged BirA (enzyme, Bacillus subtilis, UniProt P0CI75 1-325, looked up)
chain: MRSTLRKDLIELFSQAGNEFISGQKISDALGCSRTAVWKHIEELRKEGYEVEAVRRKGYRLIKKPGKLSESEIRFGLKTEVMGQHLIYHDVLSSTQKTAHELANNNAPEGTLVVADKQTAGRGRMSRVWHSQEGNGVWMSLILRPDIPLQKTPQLTLLAAVAVVQGIEEAAGIQTDIKWPNDILINGKKTVGILTEMQAEEDRVRSVIIGIGINVNQQPNDFPDELKDIATSLSQAAGEKIDRAGVIQHILLCFEKRYRDYMTHGFTPIKLLWESYALGIGTNMRARTLNGTFYGKALGIDDEGVLLLETNEGIKKIYSADIELG
notes: 325 residues by the names of the constructs (64-325 etc.); no step that removes the tag is described; The vector is pET19b, whose own tag may be longer than six histidines and is followed by a linker (surmise); also called wild type BirA; B. subtilis BirA; source: E. coli BL21 (λ DE3) with pSKH001, purified (Ni NTA)
B2 was tested, and the “stoichiometry N” value [2] was 2.

Reference: PMC4016012, “Successful Conversion of the Bacillus subtilis BirA Group II Biotin Protein Ligase into a Group I Ligase” (PLoS ONE, 2014)
